Target: IgM CM-22
Test: SPR (Biacore CM5), N2 10.5-120μM injected over amine-coupled IgM CM-22, steady-state fit to 1:1 Langmuir isotherm

IgM CM-22, sequence (chain, as listed by the source, chain 1 of 2): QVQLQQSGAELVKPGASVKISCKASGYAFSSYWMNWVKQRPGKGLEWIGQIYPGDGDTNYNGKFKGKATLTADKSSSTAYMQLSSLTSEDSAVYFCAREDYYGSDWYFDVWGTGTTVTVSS
IgM CM-22, sequence (chain, as listed by the source, chain 2 of 2): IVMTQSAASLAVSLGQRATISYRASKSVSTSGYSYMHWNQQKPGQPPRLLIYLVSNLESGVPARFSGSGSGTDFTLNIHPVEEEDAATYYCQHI

- Kd: 123 µM
Binder: LMKNMDPLNDNV (also called 自身肽N2; N2肽) [self peptide N2]

— patent publication CN1977043A (CBR INST FOR BIOMED RES INC, dated 2007)
